From patent publication US20250092130A1 (INNATE PHARMA, published 2025) come the findings set out here.

The target in assay [1] is KIR3DL2 mutant 11 (P179T, S181T) (human, UniProt P43630 22-455). In words: binding to cells transfected with KIR3DL2 mutants.
Assay [2] concerns the target KIR3DL2 mutant 11A1 (V178A, H180S) (human, UniProt P43630 22-455). In words: binding to cells transfected with KIR3DL2 mutants.
The target in assay [3] is T1, human KIR3DL2 (wild-type, allele *002) (human, UniProt P43630 22-455).
T1 construct: also called CD158k; WTaKIR3DL2
In words: immunohistochemistry (DAB) on frozen sections of RAJI-KIR3DL2 tumors and cell lines. On the procedure:
Tumor biopsies from RAJI-KIR3DL2 models and RAJI-KIR3DL2 cell lines were obtained and staining was performed on frozen samples using AZ158 antibody (see WO2010/081890) or antibodies 12B11 (see Example 1). KIR3DL2 was stained with anti-KIR3DL2 antibody by DAB chromogenic detection according to standard protocols, adapted for immunostaining with BenchMark XT (Ventana, Roche). For all staining control isotype (mIgG1) and control DAB were performed.

In assay [4] the target is KIR3DL2 mutant M11A4 (E130S, H131S, R145S) (human, UniProt P43630 22-455). In words: binding to cells transfected with KIR3DL2 mutants.
Assay [5] concerns the target T1, human KIR3DL2 (wild-type, allele *002). In words: flow cytometry on HUT78, COU-L and HEK-293T/KIR3DL2 Domain 0-eGFP cells; Biacore on rec KIR3DL2 chips. The method, then:
Antibodies which bind KIR3DL2 but not closely-related KIR3DL1 were generated by immunizing mice with recombinant KIR3DL2-Fc fusion protein. Supernatants (SN) of the growing hybridomas were tested by flow cytometry on Sézary Syndrome cell lines (HUT78, COU-L) and HEK-293T/KIR3DL2 Domain 0—eGFP. Potentially interesting hybridomas selected from the initial screening were cloned by limiting dilution techniques in 96-well plates. The secondary screen involved selection of hybridomas of interest by testing supernatants of the subclones by flow cytometry on HUT78, COU-L, HEK-293T/KIR3DL1 Domain 0—eGFP and HEK-293T/KIR3DL2 Domain 0—eGFP. Positive subclones were injected into mice to produce ascitis and antibodies of interest were purified before being tested in a Biacore assay using rec KIR3DL2 chips, followed by various assay formats based on binding to human KIR3DL2-expressing cells.

Assay [6] deals with T2, KIR3DL2 mutant having I60N and G62S substitutions (human, UniProt P43630 22-455).
T2 construct: It says 'mutants'; also called mutants having 160N and G62S substitutions
In words: binding to KIR3DL2 mutants.

Chain of KIR3DL2 mutant 11 (P179T, S181T) (P43630 other isoform, or with tags, fused parts or gaps P179T S181T P179T S181T): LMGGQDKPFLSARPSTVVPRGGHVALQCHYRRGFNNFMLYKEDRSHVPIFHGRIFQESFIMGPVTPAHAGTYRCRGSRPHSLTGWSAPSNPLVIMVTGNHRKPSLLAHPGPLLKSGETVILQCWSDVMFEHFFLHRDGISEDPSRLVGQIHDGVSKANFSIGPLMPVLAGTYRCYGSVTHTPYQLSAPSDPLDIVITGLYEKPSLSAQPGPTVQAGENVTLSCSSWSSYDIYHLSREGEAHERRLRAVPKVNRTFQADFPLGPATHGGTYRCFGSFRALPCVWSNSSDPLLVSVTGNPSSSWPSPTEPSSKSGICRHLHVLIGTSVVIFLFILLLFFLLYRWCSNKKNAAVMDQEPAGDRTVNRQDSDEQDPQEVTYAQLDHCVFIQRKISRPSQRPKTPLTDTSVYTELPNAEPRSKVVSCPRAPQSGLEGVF
T1 sequence (P43630 22-455 E158D): as the sequence (P43630 other isoform, or with tags, fused parts or gaps P179T S181T P179T S181T) above, with T179P, T181S counted along it
Chain of KIR3DL2 mutant 11A1 (V178A, H180S) (P43630 other isoform, or with tags, fused parts or gaps V178A H180S V178A H180S): as the sequence (P43630 other isoform, or with tags, fused parts or gaps P179T S181T P179T S181T) above, with V178A, T179P, H180S, T181S counted along it
T2 sequence (P43630 other isoform, or with tags, fused parts or gaps I60N G62S I60N G62S): as the sequence (P43630 other isoform, or with tags, fused parts or gaps P179T S181T P179T S181T) above, with I60N, G62S, T179P, T181S counted along it
Chain of KIR3DL2 mutant M11A4 (E130S, H131S, R145S) (P43630 other isoform, or with tags, fused parts or gaps E130S H131S R145S E130S H131S R145S): as the sequence (P43630 other isoform, or with tags, fused parts or gaps P179T S181T P179T S181T) above, with E130S, H131S, R145S, T179P, T181S counted along it

B1: antibody 12B11 (antibody, IgG1, V domains shown)
VH: QLVQSGPELKNPGETVKISCKASGYTFTNYGMNWVKQAPGKGLKWMGWINTYTGEPTYADDFKGRFAFSLETSASTAYLQINNLKNEDTATYFCAHGPWLAYWGQGTLVTVS
VL: DIKMTQSPSSMYASLGERVTITCKASQDINVYLSWFQQKPGKSPKTLIYRAIRLVDGVPSRFSGSGSGQDYSLTISSLDYEDMGIYYCLQYDELPYTFGGGTKLEIE
notes: Mouse monoclonal
Take B1: the results for the binding result in assay [1], in assay [2] and in assay [3] were “no binding”, “no binding” and “binds”, respectively.

B2: antibody 19H12 (antibody, IgG2b, V domains shown)
VH: QIQLVQSGPELKKPGETVKISCKASGYTFTNFGMNWVKQAPGKGLKWMGWINTYTGEPTYADDFKGRFAFSLETSASTAYLQINNLKNEDMATYFCARNGNFGYYFDYWGQGTTLTVSS
VL: DVLMTQTPLSLPVSLGDQASFSCRSSQNIVHSNGNTYLEWYLQKPGQSPSLLIYKVSNRFSGVPDRFSGSGSGTDFTLKITRVEAEDLGVYYCFQGSHVPFTFGSGTKLEIK
notes: Mouse monoclonal from a hybridoma; also called anti-KIR3DL2 19H12
B2: the binding result in assay [1] is “no binding”; in assay [2], “no binding”; in assay [4] it was “no binding”; in assay [5], “binds”.

B3: antibody 2B12 (antibody, V domains shown)
VH: QIQLVQSGPELKKPGETVRISCKASGYTFTTAGMQWVQKTPGKGLKWIGWINSHSGVPKYAEDFKGRFAFSLETSASTAYLQISTLKNEDTATYFCARGGDEGVMDYWGQGTSVTVS
VL: DIVMTQSHKFMSTSLGDRVSFTCKASQDVSTAVAWYQQKPGQSPKLLIYWTSTRHTGVPDRFTGSGSGTDYTLTISSVQAEDLALYYCQQHYSTPWTFGGGTKLEIK
Take B3: the binding result in assay [6] is “no binding”.
